This is an account of results in publication PMC10659161, “Cryo-electron tomography reveals the binding and release states of the major adhesion complex from Mycoplasma genitalium” (PLOS Pathogens, 2023).

The test has as its target T1, P140 (Mycoplasma genitalium, UniProt P20796 59-1444).
T1 construct: P140 of the nap particle adhesion complex, Mycoplasma genitalium G37; endogenous and not truncated, with stalk, transmembrane helix and intracellular region (residues up to 1444 are spoken of); The same endogenous protein was also studied in the nap particle purified from M. genitalium; that purification is described in an earlier publication of the authors; also called P140 adhesin of the nap …
T1 sequence: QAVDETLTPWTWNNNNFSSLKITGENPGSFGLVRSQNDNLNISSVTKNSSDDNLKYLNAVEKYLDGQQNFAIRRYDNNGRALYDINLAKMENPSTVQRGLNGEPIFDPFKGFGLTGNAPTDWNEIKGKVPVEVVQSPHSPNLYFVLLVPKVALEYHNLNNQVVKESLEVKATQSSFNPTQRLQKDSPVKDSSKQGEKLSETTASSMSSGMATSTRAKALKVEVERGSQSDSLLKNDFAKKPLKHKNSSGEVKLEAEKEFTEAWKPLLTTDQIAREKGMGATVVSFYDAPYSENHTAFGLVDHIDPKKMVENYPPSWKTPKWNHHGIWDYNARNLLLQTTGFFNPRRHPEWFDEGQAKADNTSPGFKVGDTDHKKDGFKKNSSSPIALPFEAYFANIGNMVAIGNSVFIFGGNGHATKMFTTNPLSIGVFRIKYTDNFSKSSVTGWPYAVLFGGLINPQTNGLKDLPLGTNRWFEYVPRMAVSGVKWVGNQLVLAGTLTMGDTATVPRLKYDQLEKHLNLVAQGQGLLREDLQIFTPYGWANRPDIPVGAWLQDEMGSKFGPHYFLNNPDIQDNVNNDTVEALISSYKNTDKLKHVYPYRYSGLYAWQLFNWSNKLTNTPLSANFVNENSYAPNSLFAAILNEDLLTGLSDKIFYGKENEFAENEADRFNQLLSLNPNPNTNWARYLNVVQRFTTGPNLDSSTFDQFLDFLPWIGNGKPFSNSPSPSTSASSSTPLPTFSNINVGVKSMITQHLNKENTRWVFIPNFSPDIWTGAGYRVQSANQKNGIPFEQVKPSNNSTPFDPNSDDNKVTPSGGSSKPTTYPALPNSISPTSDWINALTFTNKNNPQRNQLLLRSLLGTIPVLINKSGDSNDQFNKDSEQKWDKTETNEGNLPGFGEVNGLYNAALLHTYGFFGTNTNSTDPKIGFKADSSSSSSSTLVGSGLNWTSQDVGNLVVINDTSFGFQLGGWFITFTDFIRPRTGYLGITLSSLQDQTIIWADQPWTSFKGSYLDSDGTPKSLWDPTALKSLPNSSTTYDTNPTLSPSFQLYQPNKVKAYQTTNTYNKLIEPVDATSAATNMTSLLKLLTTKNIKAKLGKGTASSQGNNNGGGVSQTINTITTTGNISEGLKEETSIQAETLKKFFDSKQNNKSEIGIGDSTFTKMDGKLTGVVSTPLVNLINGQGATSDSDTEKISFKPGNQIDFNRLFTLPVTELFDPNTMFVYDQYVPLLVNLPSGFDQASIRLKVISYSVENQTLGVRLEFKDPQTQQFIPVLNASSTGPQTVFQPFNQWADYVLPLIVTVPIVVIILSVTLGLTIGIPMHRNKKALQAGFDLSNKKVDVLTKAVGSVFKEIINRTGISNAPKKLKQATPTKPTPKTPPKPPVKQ
The experiment in a line: cryo-EM structure; single-particle cryo-EM of the isolated nap particle purified from M. genitalium, with and without soaking in 10 mM 6'-SL (75 mM Tris-HCl pH 7.4, 400 mM NaCl, 5% glycerol, 0.5% octylglucoside); heterodimer classes at 3.3 and 3.7 Å, tetramer classes at 8.3, 7.3 and 7.7 Å. Particulars: both partners purified.

B1: P110 (natural protein)
chain: NTFLVKEDSKNVTAYTPFATPITDSKSDLVSLAQLDSSYQIADQTIHNTNLFVLFKSRDVKVKYESSGSNNISFDSTSQGEKPSYVVEFTNSTNIGIKWTMVKKYQLDVPNVSSDMNQVLKNLILEQPLTKYTLNSSLAKEKGKTQREVHLGSGQANQWTSQRNQHDLNNNPSPNASTGFKLTTGNAYRKLSESWPIYEPIDGTKQGKGKDSSGWSSTEENEAKNDAPSVSGGGSSSGTFNKYLNTKQALESIGILFDDQTPRNVITQLYYASTSKLAVTNNHIVVMGNSFLPSMWYWVVERSAQENASNKPTWFANTNLDWGEDKQKQFVENQLGYKETTSTNSHNFHSKSFTQPAYLISGIDSVNDQIIFSGFKAGSVGYDSSSSSSSSSSSSTKDQALAWSTTTSLDSKTGYKDLVTNDTGLNGPINGSFSIQDTFSFVVPYSGNHTNNGTTGPIKTAYPVKKDQKSTVKINSLINATPLNSYGDEGIGVFDALGLNYNFKSNQERLPSRTDQIFVYGIVSPNELRSAKSSADSTGSDTKVNWSNTQSRYLPVPYNYSEGIIDADGFKRPENRGASVTTFSGLKSIAPDGFANSIANFSVGLKAGIDPNPVMSGKKANYGAVVLTRGGVVRLNFNPGNDSLLSTTDNNIAPISFSFTPFTAAESAVDLTTFKEVTYNQESGLWSYIFDSSLKPSHDGKQTPVTDNMGFSVITVSRTGIELNQDQATTTLDVAPSALAVQSGIQSTTQTLTGVLPLSEEFSAVIAKDSDQNKIDIYKNNNGLFEIDTQLSNSVATNNGGLAPSYTENRVDAWGKVEFADNSVLQARNLVDKTVDEIINTPEILNSFFRFTPAFEDQKATLVATKQSDTSLSVSPRIQFLDGNFYDLNSTIAGVPLNIGFPSRVFAGFAALPAWVIPVSVGSSVGILFILLVLGLGIGIPMYRVRKLQDASFVNVFKKVDTLTTAVGSVYKKIITQTGVVKKAPSALKAANPSVKKPAAFLKPPVQPPSKPEGEQKAVEVKSEETKS
notes: P110 of the nap particle adhesion complex, Mycoplasma genitalium G37; endogenous and not truncated, with stalk, transmembrane helix and intracellular region (residues up to 1053 are spoken of); The same endogenous protein was also studied in the nap particle purified from M. genitalium; that purification is described in an earlier publication of the authors; also called P110 adhesin of the nap …
Turning to B1, the binding result was “binds”.
